Consider seven molecules from US20220348970A1, “METHODS AND COMPOSITIONS FOR 3-HYDROXYPROPIONATE PRODUCTION” (The Regents of the University of California, priority 2017, published 2022).

In data set [1] the target is Actinobacillus succinogenes PCK (phosphoenolpyruvate carboxykinase), SEQ ID NO: 163 (Actinobacillus succinogenes, UniProt A6VKV4). The data set can be described thus: Kinetics of PEPCK against PEP (carboxylation direction, malate dehydrogenase/NADH coupled). Conditions: 100 mM PBS buffer (pH 6.5), 1.25 mM ADP, 50 mM KHCO3, 2 mM MnCl2. The class given is biochemical. The method, then:
(§1) 5 genes encoding candidate PEPCKs were synthesized and cloned into expression vectors. After obtaining solubly expressed proteins, they were used for activity characterization. Each enzyme was assayed in the phosphenolpyruvate carboxylation direction in a solution containing 100 mM PBS buffer (pH 6.5), 0.20 mM NADH, 1.25 mM ADP, 2.5 mM PEP, 50 mM KHCO3, 2 mM MnCl2, and 4 units malate dehydrogenase.

Substrate in data set [2]: O=C(O)CC(=O)C(=O)O
The data set can be described thus: OAADC kinetics of 5EUJ on oxaloacetate. The class given is biochemical. Conditions: other: oxaloacetate, pH 7.2, 21° C. The method, then: (§2) All substrates were dissolved in MilliQ H2O and the pH was adjusted to 7.2 as necessary. Activity for oxaloacetate, pyruvate, and 2-ketoisovalerate was measured at a 1 mM substrate concentration. The assay was performed in a 96-well half-area plate. Each reaction contained reaction buffer (100 mM HEPES, 100 mM NaCl, 10% glycerol, pH 7.2), ADH (Sigma-Aldrich, A7011, 100 U/mL for pyruvate, 600 U/mL for oxaloacetate, and 600 U/mL for 2-ketoisovalerate), and a final concentration of 0.5 mM NADPH, 0.1 mM TPP, and 1 mM MgSO4. A range of substrate concentrations (0.1 mM-5 mM) were uSEQ to perform steady-state kinetics measurement over a period of one hour. Absorbance readings were taken at one minute intervals at 340 nm at 21° C. for 60 minutes using the Synergy H1 spectrophotometer (Biotek). Kinetic parameters (ka and Ks1) were determined by fitting initial velocity versus substrate concentration data to the Michaelis-Menten equation.
(§3) A second round of genome mining was conducted as described in Example 1, except using the 4COK sequence as the input. Genes encoding candidate OAADCs were synthesized and expressed in E. coli for further characterization. OAADC activity was assayed as described in Example 1.

Substrate in data set [3]: O=C(O)CC(=O)C(=O)O
The experiment in a line: OAADC kinetics of A0A0J7KM68 on oxaloacetate. The class given is biochemical. Conditions: other: oxaloacetate, pH 7.2, 21° C. As to the method:
as §2, §3

Substrate in data set [4]: NC(=O)c1ccc[n+]([C@@H]2O[C@H](COP(=O)([O-])OP(=O)(O)OC[C@H]3O[C@@H](n4cnc5c(N)ncnc54)[C@H](O)[C@@H]3O)[C@@H](O)[C@H]2O)c1
The data set can be described thus: 3-HPDH activity towards 3-HP (reverse reaction) using NAD+. The class given is biochemical. Conditions: other: activity towards 3-HP, pH 7.2, 21° C. As to the method: (§4) Candidate ADHs were expressed in E. coli, and soluble expression levels were analyzed. 3-HP dehydrogenase (3-HPDH) activity of each was tested based on the reverse reaction, from 3-HP to 3-oxopropanoate. The assay was performed in a 96-well half-area plate. Each reaction contained a final concentration of 1 mM NADP^+/NAD^+ in reaction buffer (100 mM Hepes, 100 mM NaCl, 10% glycerol, pH 7.2) and ADHs. A range of substrates from 0.1 mM-5 mM was used to perform steady-state kinetics measurement over a period of an hour. Absorbance readings were taken every 1 min at OD 340 at 21° C. for 60 min. using the Synergy™ H1 Hybrid Multi-Mode Microplate Reader (Biotek). Kinetic parameters (kcat and KM) were determined by fitting initial velocity versus substrate concentration data to the Michaelis-Menten equation.

Substrate in data set [5]: NC(=O)c1ccc[n+]([C@@H]2O[C@H](COP(=O)([O-])OP(=O)(O)OC[C@H]3O[C@@H](n4cnc5c(N)ncnc54)[C@H](O)[C@@H]3O)[C@@H](O)[C@H]2O)c1
Described as above. The class given is biochemical, Metallosphaera sedula. Conditions: other: activity towards 3-HP, pH 7.2, 21° C. As to the method:
as §4

Substrate in data set [6]: CC(=O)C(=O)O
The data set can be described thus: Steady-state kinetics of 4COK decarboxylase on pyruvate and oxaloacetate (ADH/NADPH coupled, 340 nm). The class given is biochemical, Gluconacetobacter diazotrophicus. Conditions: other: pH 7.2, 21° C., 0.1 mM-5 mM substrate. As to the method:
Overnight cultures of BLR cells suspended in a 2 mL volume were transformed with a pet29b+ plasmid (encoding polypeptides of interest with a C-terminal His-tag) and grown in Terrific Broth with 50 μg/ml kanamycin. Cultures were diluted 1:1.000 in 500 ml of Terrific Broth with 1 mM MgSO4, 1% glucose and 50 μg/ml antibiotic and then grown at 37° C. for 24 hours. Cultures were pelleted down at 4,700 RPM for 10 minutes and resuspended in auto-induction media (LB broth, 1 mM MgSO4, 0.1 mM TPP, 1×NPS and 1×5052) for induction at 18° C. for 20 hours. At the end of induction, cells were centrifuged, the supernatant was removed and cells were resuspended in 40 mL lysis buffer (100 mM HEPES, pH 7.5, 100 mM NaCl, 10% glycerol, 0.1 mM TPP, 1 mM MgSO4, 10 mM Imidazole, 1 mM TCEP) and 1 mM phenylmethylsulphonyl fluoride. The cell lysate suspension was sonicated for 2 min and followed by centrifugation at 4,700 RPM. The supernatant was loaded onto a gravity flow column with 500 uL Cobalt beads and was washed with 15 mL of wash buffer five times. Proteins were eluted with […] of elution buffer (100 mM HEPES, pH 7.5, 100 mM NaCl, 10% glycerol, 0.1 mM TPP, 1 mM MgSO4, 200 mM Imidazole and 1 mM TCEP). Protein concentrations were determined using a Synergy H1 spectrophotometer (Biotek) by measuring absorbance at 280 nm using calculated extinction coefficients.
All substrates were dissolved in MilliQ H2O and the pH was adjusted to 7.2 as necessary. Activity for oxaloacetate, pyruvate, and 2-ketoisovalerate was measured at a 1 mM substrate concentration. The assay was performed in a 96-well half-area plate. […] Absorbance readings were taken at one minute intervals at 340 nm at 21° C. for 60 minutes using the Synergy H1 spectrophotometer (Biotek). Kinetic parameters (ka and Ks1) were determined by fitting initial velocity versus substrate concentration data to the Michaelis-Menten equation. […]

Substrate in data set [7]: C=C(OP(=O)(O)O)C(=O)O
The experiment in a line: Kinetics of PEPCK against PEP (carboxylation direction, malate dehydrogenase/NADH coupled). The class given is biochemical, E. coli. Conditions: other: PEP, 100 mM PBS buffer (pH 6.5), 1.25 mM ADP, 50 mM KHCO3, 2 mM MnCl2. As to the method:
as §1

Actinobacillus succinogenes PCK (phosphoenolpyruvate carboxykinase), SEQ ID NO: 163, sequence (A6VKV4 whole entry): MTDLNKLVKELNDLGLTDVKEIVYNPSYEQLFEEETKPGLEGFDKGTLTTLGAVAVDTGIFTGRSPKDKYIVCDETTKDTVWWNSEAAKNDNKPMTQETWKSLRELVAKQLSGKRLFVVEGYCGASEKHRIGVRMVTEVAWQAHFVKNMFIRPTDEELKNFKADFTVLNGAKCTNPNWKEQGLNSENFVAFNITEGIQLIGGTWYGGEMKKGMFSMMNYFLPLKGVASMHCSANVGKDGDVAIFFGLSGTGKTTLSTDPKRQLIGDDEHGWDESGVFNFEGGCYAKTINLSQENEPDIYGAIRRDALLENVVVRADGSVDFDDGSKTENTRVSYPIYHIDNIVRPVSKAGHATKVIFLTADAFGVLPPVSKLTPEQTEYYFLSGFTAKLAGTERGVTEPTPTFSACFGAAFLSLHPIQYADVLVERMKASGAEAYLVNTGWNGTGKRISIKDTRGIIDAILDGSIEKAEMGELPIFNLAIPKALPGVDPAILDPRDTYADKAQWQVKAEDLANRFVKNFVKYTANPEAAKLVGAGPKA

The Km is the concentration of substrate that gives half-maximal velocity. By kcat is commonly meant the number of substrate molecules converted per active site and unit of time at saturation. Turning to `C=C(OP(=O)(O)O)C(=O)O` [PEP, phosphoenolpyruvate], in data set [1], the Km turned out to be 169 µM and the kcat was found to be 2.875 s⁻¹.

B1: OAADC 5EUJ, SEQ ID NO: 146 (Zymobacter palmae) (protein)
chain: MYTVGMYLAERLAQIGLKHHFAVAGDYNLVLLDQLLLNKDMEQVYCCNELNCGFSAEGYARARGAAAAIVTFSVGAISAMNAIGGAYAENLPVILISGSPNTNDYGTGHILHHTIGTTDYNYQLEMVKHVTCAAESIVSAEEAPAKIDHVIRTALRERKPAYLEIACNVAGAECVRPGPINSLLRELEVDQTSVTAAVDAAVEWLQDRQNVVMLVGSKLRAAAAEKQAVALADRLGCAVTIMAAAKGFFPEDHPNFRGLYWGEVSSEGAQELVENADAILCLAPVFNDYATVGWNSWPKGDNVMVMDTDRVTFAGQSFEGLSLSTFAAALAEKAPSRPATTQGTQAPVLGIEAAEPNAPLTNDEMTRQIQSLITSDTTLTAETGDSWFNASRMPIPGGARVELEMQWGHIGWSVPSAFGNAVGSPERRHIMMVGDGSFQLTAQEVAQMIRYEIPVIIFLINNRGYVIEIAIHDGPYNYIKNWNYAGLIDVFNDEDGHGLGLKASTGAELEGAIKKALDNRRGPTLIECNIAQDDCTETLIAWGKRVAATNSRKPQAGGSG
As a reminder, the kcat/Km is the turnover number divided by the Michaelis constant. For the molecule B1, in data set [2], the Km amounted to 6667 µM, the turnover number (kcat) came out at 28.8 s⁻¹ and the kcat/Km is 4320 ± 321 M⁻¹ s⁻¹.

B2: OAADC A0A0J7KM68_LASNI, SEQ ID NO: 145 (Lasius niger) (protein)
chain: MSYTVGQYLADRLVQIGLKDHFAIAGDYNLVLLDQFLKNKNWNQIYDCNELNCGFAAEGYARANGAAACVVTYTVGAISAMNSALAGAYAENLPVLCISGAPNCNDYGSGRILHHTIGKPEFTQQLDMVKHVTCAAESVVQASEAPAKIDHVIRTMLLEQRPAYIDIACNISGLECPRPGPIEDLLPQYAADNKSLTSAIDAIAKKIEASQKVTLYVGPKVRPGKAKEASVKLADALGCAVTVGPASMSFFPAKHPGFRGTYWGIVSTGDANKVVEEAETLIVLGPNWNDYATVGWKAWPKGPRVVTIDEKAAQVDGQVFSGLSMKALVEGLAKKVSKKPATAEGTKAPHFEYPVAKPDAKLTNAEMARQINAILDDNTTLHAETGDSWFNVKNMNWPNGLRIESEMQYGHIGWSIPSGFGGAIGSPERKHIIMCGDGSFQLTCQEVSQMIRYKLPVTIFLIDNHGYGIEIAIHDGPYNYIQNWNFTKLMEVFNGEGEECPYSHNKNGKSGLGLKATTPAELADAIKQAEANKEGPTLIQVVIDQDDCTKDLLTWGKEVAKTNARSPVVTDKAGGSG
Turning to B2, in data set [3], the Michaelis constant (Km) worked out at 2389 µM, the kcat worked out at 6.25 s⁻¹ and the kcat/Km was 2620 ± 224 M⁻¹ s⁻¹.

B3: 3-HPDH 2CVZ, SEQ ID NO: 159 (Thermus thermophilus HB8) (protein)
chain: MEKVAFIGLGAMGYPMAGHLARRFPTLVWNRTFEKALRHQEEFGSEAVPLERVAEARVIFTCLPTTREVYEVAEALYPYLREGTYWVDATSGEPEASRRLAERLREKGVTYLDAPVSGGTSGAEAGTLTVMLGGPEEAVERVRPFLAYAKKVVHVGPVGAGHAVKAINNALLAVNLWAAGEGLLALVKQGVSAEKALEVINASSGRSNATENLIPQRVLTRAFPKTFALGLLVKDLGIAMGVLDGEKAPSPLLRLAREVYEMAKRELGPDADHVEALRLLERWGGVEIR
notes: PDB 2CVZ is from strain HB8 (ATCC 27634 / DSM 579)
Take B3: the Km in data set [4] worked out at 420 µM.

B4: 3-HPDH A4YI81, SEQ ID NO: 154 (Metallosphaera sedula DSM 5348) (protein)
chain: MTEKVSVVGAGVIGVGWATLFASKGYSVSLYTEKKETLDKGIEKLRNYVQVMKNNSQITEDVNTVISRVSPTTNLDEAVRGANFVIEAVIEDYDAKKKIFGYLDSVLDKEVILASSTSGLLITEVQKAMSKHPERAVIAHPWNPPHLLPLVEIVPGEKTSMEVVERTKSLMEKLDRIVVVLKKEIPGFIGNRLAFALFREAVYLVDEGVATVEDIDKVMTAAIGLRWAFMGPFLTYHLGGGEGGLEYFFNRGFGYGANEWMHTLAKYDKFPYTGVTKAIQQMKEYSFIKGKTFQEISKWRDEKLLKVYKLVWEK
notes: UniProt strain ATCC 51363 / DSM 5348 / TH2
As for B4, in data set [5], the Km was determined as 650 µM.

B5: pyruvate decarboxylase from Gluconacetobacter diazotrophicus (4COK), SEQ ID NO: 1 (Gluconacetobacter diazotrophicus PA1 5) (protein)
chain: MTYTVGRYLADRLAQIGLKHHFAVAGDYNLVLLDQLLLNTDMQQIYCSNELNCGFSAEGYARANGAAAAIVTFSVGALSAFNALGGAYAENLPVILISGAPNANDHGTGHILHHTLGTTDYGYQLEMARHITCAAESIVAAEDAPAKIDHVIRTALREKKPAYLEIACNVAGAPCVRPGGIDALLSPPAPDEASLKAAVDAALAFIEQRGSVTMLVGSRIRAAGAQAQAVALADALGCAVTTMAAAKSFFPEDHPGYRGHYWGEVSSPGAQQAVEGADGVICLAPVFNDYATVGWSAWPKGDNVMLVERHAVTVGGVAYAGIDMRDFLTRLAAHTVRRDATARGGAYVTPQTPAAAPTAPLNNAEMARQIGALLTPRTTLTAETGDSWFNAVRMKLPHGARVELEMQWGHIGWSVPAAFGNALAAPERQHVLMVGDGSFQLTAQEVAQMIRHDLPVIIFLINNHGYTIEVMIHDGPYNNVKNWDYAGLMEVFNAGEGNGLGLRARTGGELAAAIEQARANRNGPTLIECTLDRDDCTQELVTWGKRVAAANARPPRAG
notes: likely strain PAl 5 (ATCC 49037 / DSM 5601)
Turning to B5, in data set [6], the Michaelis-Menten constant (Km) is 1490 ± 430 µM, the catalytic constant (kcat) came to 8.25 ± 1.87 s⁻¹ and the kcat/Km is 5532 ± 39.4 M⁻¹ s⁻¹.

B6: E. coli PCK (phosphoenolpyruvate carboxykinase, PCKA_Ecoli), SEQ ID NO: 162 (Escherichia coli K-12) (protein)
chain: MRVNNGLTPQELEAYGISDVHDIVYNPSYDLLYQEELDPSLTGYERGVLTNLGAVAVDTGIFTGRSPKDKYIVRDDTTRDTFWWADKGKGKNDNKPLSPETWQHLKGLVTRQLSGKRLFVVDAFCGANPDTRLSVRFITEVAWQAHFVKNMFIRPSDEELAGFKPDFIVMNGAKCTNPQWKEQGLNSENFVAFNLTERMQLIGGTWYGGEMKKGMFSMMNYLLPLKGIASMHCSANVGEKGDVAVFFGLSGTGKTTLSTDPKRRLIGDDEHGWDDDGVFNFEGGCYAKTIKLSKEAEPEIYNAIRRDALLENVTVREDGTIDFDDGSKTENTRVSYPIYHIDNIVKPVSKAGHATKVIFLTADAFGVLPPVSRLTADQTQYHFLSGFTAKLAGTERGITEPTPTFSACFGAAFLSLHPTQYAEVLVKRMQAAGAQAYLVNTGWNGTGKRISIKDTRAIIDAILNGSLDNAETFTLPMFNLAIPTELPGVDTKILDPRNTYASPEQWQEKAETLAKLFIDNFDKYTDTPAGAALVAAGPKL
On to B6, for which, in data set [7], the Km amounted to 190.5 µM, the catalytic constant (kcat) worked out at 3.42 s⁻¹ and the kcat/Km was found to be 18000 M⁻¹ s⁻¹.
